The assay concerns the target Bio-SAP97 (SAP97 with N-terminal tag for in vivo biotinylation) (UniProt Q62696). Description: pull-down; streptavidin-sepharose pull-down of biotin-tagged SAP97 or PSD-95 from Triton X-100 extracts (TNE buffer, pH 7.5, 120 mM NaCl, 4°C) of co-transfected HEK293 or HEK293T cells; western blot. (Immunoblotting shows a protein as a band on a membrane.)

In PMC5289633 one finds percent decrease in association against wt GluA1 data, which are given here for one substance.

Sequence of UniProt Q62696 (Q62696 whole entry): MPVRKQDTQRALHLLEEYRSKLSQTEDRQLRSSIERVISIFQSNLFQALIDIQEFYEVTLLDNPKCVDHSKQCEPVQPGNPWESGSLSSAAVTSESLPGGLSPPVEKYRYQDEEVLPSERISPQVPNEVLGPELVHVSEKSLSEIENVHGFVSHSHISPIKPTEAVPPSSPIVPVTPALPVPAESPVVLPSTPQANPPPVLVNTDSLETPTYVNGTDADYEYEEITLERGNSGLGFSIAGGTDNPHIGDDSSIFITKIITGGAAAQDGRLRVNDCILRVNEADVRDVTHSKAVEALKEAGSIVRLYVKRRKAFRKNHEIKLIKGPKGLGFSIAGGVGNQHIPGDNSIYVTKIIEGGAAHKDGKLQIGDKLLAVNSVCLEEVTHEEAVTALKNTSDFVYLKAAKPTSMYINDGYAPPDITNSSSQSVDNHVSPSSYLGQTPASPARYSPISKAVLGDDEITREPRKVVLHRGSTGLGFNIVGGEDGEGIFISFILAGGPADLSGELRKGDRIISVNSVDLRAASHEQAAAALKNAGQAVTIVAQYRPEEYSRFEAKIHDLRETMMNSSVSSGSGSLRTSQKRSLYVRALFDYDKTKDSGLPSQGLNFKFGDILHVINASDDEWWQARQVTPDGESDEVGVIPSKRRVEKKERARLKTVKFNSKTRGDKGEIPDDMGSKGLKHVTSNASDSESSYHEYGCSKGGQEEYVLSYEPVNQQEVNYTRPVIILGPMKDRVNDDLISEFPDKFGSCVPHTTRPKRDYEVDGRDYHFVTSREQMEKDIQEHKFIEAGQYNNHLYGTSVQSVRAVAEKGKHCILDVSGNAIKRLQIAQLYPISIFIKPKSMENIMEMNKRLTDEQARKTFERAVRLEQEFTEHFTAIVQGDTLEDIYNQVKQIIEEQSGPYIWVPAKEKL

In turn, “N-terminally GFP-tagged GluA1 C893S mutant (receptor)” came in with a percent decrease in association against wt GluA1 of 60 to 70%.
